Laboratory results: US20050226876A1 (Hoffmann-La Roche, published 2005)

What was measured:
[1] = molecular target: T1, P-selectin on P-selectin-CHO transfectants (human, UniProt P16109 42-830); assay: cell-based ELISA on P-selectin-CHO transfectants, OD405
T1 construct: whole, on cells; not restated for the transfectant; also called P-selectin-CHO cells; P-selectin CHO cells
T1 sequence (looked up): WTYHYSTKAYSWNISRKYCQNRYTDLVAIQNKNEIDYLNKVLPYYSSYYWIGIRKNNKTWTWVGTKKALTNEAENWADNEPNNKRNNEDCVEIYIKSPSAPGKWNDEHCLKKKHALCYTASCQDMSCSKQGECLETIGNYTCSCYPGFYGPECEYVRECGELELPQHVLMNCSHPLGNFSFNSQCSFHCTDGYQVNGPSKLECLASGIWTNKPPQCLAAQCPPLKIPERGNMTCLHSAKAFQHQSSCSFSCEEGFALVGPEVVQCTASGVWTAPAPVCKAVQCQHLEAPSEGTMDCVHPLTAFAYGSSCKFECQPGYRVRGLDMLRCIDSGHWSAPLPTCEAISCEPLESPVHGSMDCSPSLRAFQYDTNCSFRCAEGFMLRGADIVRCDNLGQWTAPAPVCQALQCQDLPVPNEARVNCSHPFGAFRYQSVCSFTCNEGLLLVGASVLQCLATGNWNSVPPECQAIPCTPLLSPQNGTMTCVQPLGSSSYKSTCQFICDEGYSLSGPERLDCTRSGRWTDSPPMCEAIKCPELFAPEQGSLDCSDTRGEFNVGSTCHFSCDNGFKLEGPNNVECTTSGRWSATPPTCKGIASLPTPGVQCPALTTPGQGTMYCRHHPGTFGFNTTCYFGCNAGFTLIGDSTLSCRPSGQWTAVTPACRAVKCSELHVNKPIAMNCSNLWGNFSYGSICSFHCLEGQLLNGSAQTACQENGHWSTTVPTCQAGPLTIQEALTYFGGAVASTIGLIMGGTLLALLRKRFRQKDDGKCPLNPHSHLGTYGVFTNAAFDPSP
Experimental: (§1) In the cell-based ELISA P— and E-selectin-CHO-transfectants, after detaching the cells with cell-dissociation solution (Sigma C5914), were seeded into each well of 96 well plates (TC Microwell F96 Nunc 167008) adjusted to 100,000 cells/well and cultivated in respective media overnight at 37° C. (medium for P— CHO-transfectants: DMEM+10% FCS+2 mM Glutamine+Penicillin 100 U/ml/Streptomycin 100 μg/ml; medium for E-selctin transfecttants: HAM F-12+10% FCS+2 mM Glutamine+Penicillin 100 U/ml/Streptomycin 100 μg/ml+0.1% Fungizone+100 μg/ml Neomycin). […] After washing the wells (4 times), the bound antibodies were detected using the same steps as mentioned above for the cell-free ELISA.

[2] = molecular target: T2, E-selectin on E-selectin-CHO transfectants (UniProt P16581 22-610, limits assumed); assay: cell-based ELISA on E-selectin-CHO transfectants, OD405
T2 construct: whole, on cells; also called E-selectin-CHO cells; E-selectin transfectants
T2 sequence (looked up): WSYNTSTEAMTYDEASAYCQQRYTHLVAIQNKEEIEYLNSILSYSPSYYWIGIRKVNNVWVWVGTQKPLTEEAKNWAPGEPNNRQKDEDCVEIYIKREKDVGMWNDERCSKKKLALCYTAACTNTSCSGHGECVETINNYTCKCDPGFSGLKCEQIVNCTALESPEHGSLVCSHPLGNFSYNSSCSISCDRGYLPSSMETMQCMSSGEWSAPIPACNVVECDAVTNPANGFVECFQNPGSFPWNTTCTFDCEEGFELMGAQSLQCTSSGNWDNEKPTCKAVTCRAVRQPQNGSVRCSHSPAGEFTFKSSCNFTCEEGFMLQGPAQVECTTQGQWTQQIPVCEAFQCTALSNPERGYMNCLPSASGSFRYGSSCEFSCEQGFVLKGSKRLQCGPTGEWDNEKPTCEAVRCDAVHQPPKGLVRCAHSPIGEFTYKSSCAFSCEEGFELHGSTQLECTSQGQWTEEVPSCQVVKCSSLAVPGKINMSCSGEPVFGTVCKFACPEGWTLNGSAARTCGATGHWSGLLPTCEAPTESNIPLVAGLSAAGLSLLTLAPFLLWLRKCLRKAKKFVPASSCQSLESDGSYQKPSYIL
Experimental: as §1

[3] = molecular target: T3, cynomologus P-selectin (on thrombin-activated cynomologus platelets) (cynomologus monkey); assay: cell-based or functional assay
T3 chain: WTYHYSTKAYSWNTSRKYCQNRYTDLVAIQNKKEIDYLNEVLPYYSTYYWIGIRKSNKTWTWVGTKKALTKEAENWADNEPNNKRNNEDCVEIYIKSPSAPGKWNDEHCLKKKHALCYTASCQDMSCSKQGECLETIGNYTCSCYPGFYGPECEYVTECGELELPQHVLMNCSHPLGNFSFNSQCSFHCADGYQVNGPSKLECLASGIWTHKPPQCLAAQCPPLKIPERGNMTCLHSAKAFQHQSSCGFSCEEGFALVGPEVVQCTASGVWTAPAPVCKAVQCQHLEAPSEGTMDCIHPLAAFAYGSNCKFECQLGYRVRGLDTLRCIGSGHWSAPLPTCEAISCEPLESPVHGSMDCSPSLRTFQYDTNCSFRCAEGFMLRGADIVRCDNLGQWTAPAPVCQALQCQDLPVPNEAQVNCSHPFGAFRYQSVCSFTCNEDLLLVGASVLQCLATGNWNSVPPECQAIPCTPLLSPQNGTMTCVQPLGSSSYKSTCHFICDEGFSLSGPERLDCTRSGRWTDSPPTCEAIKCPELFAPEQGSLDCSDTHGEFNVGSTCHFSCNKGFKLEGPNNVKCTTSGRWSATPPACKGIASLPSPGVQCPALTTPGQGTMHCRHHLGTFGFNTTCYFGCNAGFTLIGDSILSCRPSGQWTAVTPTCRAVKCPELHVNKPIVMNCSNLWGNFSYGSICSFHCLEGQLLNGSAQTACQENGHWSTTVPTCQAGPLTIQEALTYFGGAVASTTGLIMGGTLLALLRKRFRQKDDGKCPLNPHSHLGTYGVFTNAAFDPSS

[4] = molecular target: T4, Fcγ receptor on human NK cells (FcγRIII) (human, UniProt P08637 17-254); assay: FACS on NK cells from human blood, antibody 10 µg/ml; no antibody: 0.03
T4 construct: whole, on cells; also called FcγR presented on NK cells
T4 sequence (P08637 17-254): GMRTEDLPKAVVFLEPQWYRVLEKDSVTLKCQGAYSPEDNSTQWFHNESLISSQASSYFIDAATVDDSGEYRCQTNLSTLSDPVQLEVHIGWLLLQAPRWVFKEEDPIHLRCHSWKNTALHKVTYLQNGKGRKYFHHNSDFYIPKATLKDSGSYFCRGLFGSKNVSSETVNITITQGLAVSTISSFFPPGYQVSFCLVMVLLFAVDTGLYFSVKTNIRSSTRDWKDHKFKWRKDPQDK

[5] = molecular target: T5, human complement factor C3 (from human pooled serum) (human, UniProt P01024 23-1663, limits assumed); assay: C3 ELISA, antibody coated, human pooled serum
T5 construct: The ELISA detects C3 (C3c) deposited on the coated antibody out of serum; also called C3c
T5 sequence (P01024 23-1663 limits assumed): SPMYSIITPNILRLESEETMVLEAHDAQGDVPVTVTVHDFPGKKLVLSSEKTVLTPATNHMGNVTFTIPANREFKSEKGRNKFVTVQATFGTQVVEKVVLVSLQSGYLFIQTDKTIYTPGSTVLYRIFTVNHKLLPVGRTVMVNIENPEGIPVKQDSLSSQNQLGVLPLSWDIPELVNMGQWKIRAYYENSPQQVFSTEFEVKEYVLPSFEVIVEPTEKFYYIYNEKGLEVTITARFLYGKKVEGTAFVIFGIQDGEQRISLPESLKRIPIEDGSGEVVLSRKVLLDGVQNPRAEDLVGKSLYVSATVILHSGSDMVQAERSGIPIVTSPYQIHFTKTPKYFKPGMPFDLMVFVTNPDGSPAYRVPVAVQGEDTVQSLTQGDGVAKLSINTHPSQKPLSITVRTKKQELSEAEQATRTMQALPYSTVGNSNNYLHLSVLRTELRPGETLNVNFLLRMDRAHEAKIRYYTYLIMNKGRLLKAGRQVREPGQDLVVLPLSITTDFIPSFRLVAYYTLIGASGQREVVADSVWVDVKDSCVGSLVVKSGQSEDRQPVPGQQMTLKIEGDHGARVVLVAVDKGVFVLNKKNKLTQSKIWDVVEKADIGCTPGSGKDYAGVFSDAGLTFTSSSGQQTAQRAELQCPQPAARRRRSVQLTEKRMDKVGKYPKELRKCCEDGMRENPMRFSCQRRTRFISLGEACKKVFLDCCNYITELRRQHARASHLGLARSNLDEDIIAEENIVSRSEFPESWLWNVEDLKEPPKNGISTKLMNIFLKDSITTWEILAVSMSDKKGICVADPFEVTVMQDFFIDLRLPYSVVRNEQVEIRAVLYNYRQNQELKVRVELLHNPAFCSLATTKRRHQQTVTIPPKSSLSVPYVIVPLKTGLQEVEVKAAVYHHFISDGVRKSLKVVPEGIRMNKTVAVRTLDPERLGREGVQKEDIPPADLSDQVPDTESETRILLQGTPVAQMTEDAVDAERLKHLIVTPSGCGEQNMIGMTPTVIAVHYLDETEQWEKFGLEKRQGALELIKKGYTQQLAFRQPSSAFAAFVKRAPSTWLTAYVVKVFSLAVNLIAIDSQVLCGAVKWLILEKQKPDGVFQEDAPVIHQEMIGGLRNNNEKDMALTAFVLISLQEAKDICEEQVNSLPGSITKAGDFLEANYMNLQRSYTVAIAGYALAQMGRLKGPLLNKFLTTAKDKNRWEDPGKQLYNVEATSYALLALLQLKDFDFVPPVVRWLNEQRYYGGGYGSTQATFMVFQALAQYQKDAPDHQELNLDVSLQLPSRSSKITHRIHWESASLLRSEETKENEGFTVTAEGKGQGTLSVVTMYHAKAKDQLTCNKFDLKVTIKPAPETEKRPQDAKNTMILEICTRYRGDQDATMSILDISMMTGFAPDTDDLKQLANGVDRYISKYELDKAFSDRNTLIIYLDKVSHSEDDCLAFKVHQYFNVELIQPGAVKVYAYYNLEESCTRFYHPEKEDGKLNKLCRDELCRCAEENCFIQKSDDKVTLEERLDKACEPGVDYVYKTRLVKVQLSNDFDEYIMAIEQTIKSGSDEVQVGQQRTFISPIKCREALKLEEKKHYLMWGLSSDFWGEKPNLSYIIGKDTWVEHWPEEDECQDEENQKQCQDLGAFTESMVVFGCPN
Experimental: In principle, the ELISA plate is coated with concentration ranges of the antibody, to which human C1q or human pooled serum, as a source of C3, is added. C1q or […] binding is detected by an antibody directed against human C1q or […] followed by a peroxidase-labeled conjugate.

B1: HuMab 002 Fc variant IgG1v1 (PVA-236; GLPSS331: E233P; L234V; L235A; delta G236; A327G; A330S; P331S) (antibody)
heavy: EVQLVESGGGLVRPGGSLRLSCAASGFTFSNYDMHWVRQATGKGLEWVSAITAAGDIYYPGSVKGRFTISRENAKNSLYLQMNSLRAGDTAVYYCARGRYSGSGSYYNDWFDPWGQGTLVTVSSASTKGPSVFPLAPSSKSTSGGTAALGCLVKDYFPEPVTVSWNSGALTSGVHTFPAVLQSSGLYSLSSVVTVPSSSLGTQTYICNVNHKPSNTKVDKKVEPKSCDKTHTCPPCPAPPVAGPSVFLFPPKPKDTLMISRTPEVTCVVVDVSHEDPEVKFNWYVDGVEVHNAKTKPREEQYNSTYRVVSVLTVLHQDWLNGKEYKCKVSNKGLPSSIEKTISKAKGQPREPQVYTLPPSRDELTKNQVSLTCLVKGFYPSDIAVEWESNGQPENNYKTTPPVLDSDGSFFLYSKLTVDKSRWQQGNVFSCSVMHEALHNHYTQKSLSLSPGK
light: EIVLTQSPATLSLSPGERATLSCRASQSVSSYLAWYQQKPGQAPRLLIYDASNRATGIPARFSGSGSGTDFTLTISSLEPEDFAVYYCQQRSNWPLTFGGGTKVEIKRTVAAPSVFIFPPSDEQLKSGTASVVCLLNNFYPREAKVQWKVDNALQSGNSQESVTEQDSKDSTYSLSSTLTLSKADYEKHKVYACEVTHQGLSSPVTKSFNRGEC
notes: copies: 2 + 2
For B1, the “EC50 (read off the curve)” value [1] was about 0.03 µg/mL, the binding result [2] was “no binding (tested: 100 µg/ml)” and the “IC50 (read off the curve), rosetting assay with thrombin-activated cynomologus platelets and HL60 cells” value [3] was about 0.2 µg/ml. The “% NK cells binding antibody” value [4] was 0.12% and the binding result [5] was “no binding”.
